Laboratory results published in patent US20190247357A1, “NANOPARTICLE FORMULATIONS AND METHODS OF MAKING AND USING THEREOF” (Abraxis BioScience, LLC, priority 2016, published 2019).

Experiments:
ErbB2 [1] = target: ErbB2 (UniProt P04626); assay: Phospho(Tyr1248)/Total ErbB2 binding assay, MSD whole cell lysate kit, SK-BR-3 cells treated 2 h
ErbB2 [2] = target: ErbB2 (UniProt P04626); assay: Phospho(Tyr1248)/Total ErbB2 binding assay, MSD whole cell lysate kit, BT-474 cells treated 2 h
[3] = system: A375 human melanoma cells; assay: A375 melanoma xenograft model: tumor volume change and survival; conditions: mice with tumors larger than 2000 mm^3 euthanized
Description: A375 human melanoma cells were subcutaneously injected into mice to generate xenograft models. The tumors were allowed to grow to about 600 mm^3 before treatment according to the following protocols. Nine mice were treated for each protocol, except as noted.
Cohort 1—Vehicle control (“Vehicle”). […] The vehicle control was administered to each mouse at a dosage of 120 μL/mouse on the second day of the experiment.
Cohort 4—BEV12 and ABX30 on same day (“BEV12+ABX30—Same Day”).
P-values were determined using an un-paired t-test.
Survival time of the treated mice was also recoded. Mice with tumors larger than 2000 mm^3 were euthanized.

Substance: Thiolated conjugate of trastuzumab and nab-paclitaxel particles (Example 33, paclitaxel:trastuzumab 12:1) (from UniProt P02768 25-609)
- IC50 (ErbB2 [1]): 0.977 nM
- IC50 (ErbB2 [2]): 0.216 nM

Substance: Nanoparticles with embedded trastuzumab, paclitaxel and albumin (Example 12, Batch 2, paclitaxel:trastuzumab 5.9:1) (from UniProt P02768 25-609)
- IC50 (ErbB2 [1]): 0.361 nM
- IC50 (ErbB2 [2]): 0.349 nM

Substance: SM(PEG)6 conjugate of trastuzumab and nab-paclitaxel particles with free mAb (Example 35, paclitaxel:trastuzumab 10:1) (from UniProt P02768 25-609)
- IC50 (ErbB2 [1]): 0.301 nM
- IC50 (ErbB2 [2]): 0.441 nM

Substance: SM(PEG)6 conjugate of trastuzumab and isolated nab-paclitaxel particles (Example 23, paclitaxel:trastuzumab 92.5:1) (from UniProt P02768 25-609)
- IC50 (ErbB2 [1]): 0.557 nM
- IC50 (ErbB2 [2]): 0.291 nM

Substance: Nanoparticles with embedded trastuzumab, paclitaxel and albumin (Example 12, Batch 3, paclitaxel:trastuzumab 6.7:1) (from UniProt P02768 25-609)
- IC50 (ErbB2 [1]): 0.37 nM
- IC50 (ErbB2 [2]): 0.456 nM

Substance: Click conjugate of trastuzumab and nab-paclitaxel particles (Example 26, paclitaxel:trastuzumab 51:1) (from UniProt P02768 25-609)
- IC50 (ErbB2 [1]): 0.59 nM
- IC50 (ErbB2 [2]): 0.702 nM

Substance: Nanoparticles with embedded trastuzumab, paclitaxel and albumin (Example 12, Batch 4, paclitaxel:trastuzumab 4.5:1) (from UniProt P02768 25-609)
- IC50 (ErbB2 [1]): 0.289 nM
- IC50 (ErbB2 [2]): 0.429 nM

Substance: bevacizumab: antiangiogenic antibody that targets vascular endothelial growth factor A (VEGF-A)
- Median Survival [3]: 38 days

Substance: Nanoparticles with embedded trastuzumab, paclitaxel and albumin, with free mAb (Example 20, paclitaxel:trastuzumab 10:1) (from UniProt P02768 25-609)
- IC50 (ErbB2 [1]): 0.409 nM
- IC50 (ErbB2 [2]): 0.524 nM

Substance: Thiolated conjugate of trastuzumab and nab-paclitaxel particles (Example 34, paclitaxel:trastuzumab 31:1) (from UniProt P02768 25-609)
- IC50 (ErbB2 [1]): 0.311 nM

Substance: Nanoparticles with embedded trastuzumab, paclitaxel and albumin (Example 12, Batch 1, paclitaxel:trastuzumab 5.6:1) (from UniProt P02768 25-609)
- IC50 (ErbB2 [1]): 0.357 nM
- IC50 (ErbB2 [2]): 0.35 nM
